Where two headings read alike, the source gives them in different places.

The values below come from publication PMC11968997.

With PDHA1: K83R, where the note is “other: succinylation at K83”, the degradation_or_half_life entry is on record as “no change”, the enzymatic_activity entry is listed as “decreases” and the other entry is given as “increases”.

On to PDHA1: K83R S293A (compared with K83R), for which the enzymatic_activity result (phosphorylation at S293) is “increases”.
